From patent US20050002950

Molecular target: recombinant human C5a (UniProt P01031)
Sequence (P01031 678-751): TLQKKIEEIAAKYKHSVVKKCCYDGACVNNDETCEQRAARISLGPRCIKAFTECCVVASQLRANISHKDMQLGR

Substance: ScpB, the C5a peptidase of GBS, on whole cells of strain COH1
- C5a protease activity (C5a-stimulated PMN adherence to gelatin-coated plastic after preincubating C5a with GBS): Preincubation of C5a with COH1 or TOH121 abolished C5a activity
